Measurements published in publication PMC11910884 (The Innovation, 2025).

Target: LgBiT-Npc1l1 expressed on OVA-Panc-02 cells (UniProt Q6T3U4 21-1333)
Test: split reporter

LgBiT-Npc1l1 expressed on OVA-Panc-02 cells, sequence (Q6T3U4 21-1333): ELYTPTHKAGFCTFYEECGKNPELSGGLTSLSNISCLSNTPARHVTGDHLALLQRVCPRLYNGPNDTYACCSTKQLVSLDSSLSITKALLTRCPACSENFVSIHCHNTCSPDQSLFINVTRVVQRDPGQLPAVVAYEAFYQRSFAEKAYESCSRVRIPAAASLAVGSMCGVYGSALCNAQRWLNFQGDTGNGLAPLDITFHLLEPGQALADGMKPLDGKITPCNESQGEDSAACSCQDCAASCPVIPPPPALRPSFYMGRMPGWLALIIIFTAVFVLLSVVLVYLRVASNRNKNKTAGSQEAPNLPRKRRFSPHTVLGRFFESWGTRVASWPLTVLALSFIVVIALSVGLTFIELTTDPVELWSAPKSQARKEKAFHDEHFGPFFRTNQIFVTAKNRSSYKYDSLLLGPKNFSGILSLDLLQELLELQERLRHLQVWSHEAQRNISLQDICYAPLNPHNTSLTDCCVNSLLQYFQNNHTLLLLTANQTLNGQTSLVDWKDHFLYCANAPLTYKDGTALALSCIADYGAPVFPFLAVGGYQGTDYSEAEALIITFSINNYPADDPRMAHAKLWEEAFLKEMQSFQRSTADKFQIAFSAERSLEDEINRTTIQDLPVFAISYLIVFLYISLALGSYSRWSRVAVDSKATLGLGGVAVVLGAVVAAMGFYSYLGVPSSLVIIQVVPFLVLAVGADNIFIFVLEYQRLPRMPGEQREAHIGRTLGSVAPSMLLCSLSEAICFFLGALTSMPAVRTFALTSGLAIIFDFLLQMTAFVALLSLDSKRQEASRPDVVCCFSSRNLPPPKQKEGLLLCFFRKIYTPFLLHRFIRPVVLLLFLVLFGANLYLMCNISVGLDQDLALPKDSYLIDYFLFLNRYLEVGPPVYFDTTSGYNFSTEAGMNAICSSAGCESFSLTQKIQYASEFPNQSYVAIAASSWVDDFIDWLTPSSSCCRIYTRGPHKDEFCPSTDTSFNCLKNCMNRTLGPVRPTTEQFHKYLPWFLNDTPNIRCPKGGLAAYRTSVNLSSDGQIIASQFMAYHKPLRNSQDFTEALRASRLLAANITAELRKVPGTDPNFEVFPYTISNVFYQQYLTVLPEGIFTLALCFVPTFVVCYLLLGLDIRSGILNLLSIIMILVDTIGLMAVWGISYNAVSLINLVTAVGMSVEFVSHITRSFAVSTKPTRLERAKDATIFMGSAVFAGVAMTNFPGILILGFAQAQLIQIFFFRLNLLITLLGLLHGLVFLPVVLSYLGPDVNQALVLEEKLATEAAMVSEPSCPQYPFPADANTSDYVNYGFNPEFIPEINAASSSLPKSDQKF

B1: SmBiT-Itgal (receptor)
chain: YNLDTRPTQSFLAQAGRHFGYQVLQIEDGVVVGAPGEGDNTGGLYHCRTSSEFCQPVSLHGSNHTSKYLGMTLATDAAKGSLLACDPGLSRTCDQNTYLSGLCYLFPQSLEGPMLQNRPAYQECMKGKVDLVFLFDGSQSLDRKDFEKILEFMKDVMRKLSNTSYQFAAVQFSTDCRTEFTFLDYVKQNKNPDVLLGSVQPMFLLTNTFRAINYVVAHVFKEESGARPDATKVLVIITDGEASDKGNISAAHDITRYIIGIGKHFVSVQKQKTLHIFASEPVEEFVKILDTFEKLKDLFTDLQRRIYAIEGTNRQDLTSFNMELSSSGISADLSKGHAVVGAVGAKDWAGGFLDLREDLQGATFVGQEPLTSDVRGGYLGYTVAWMTSRSSRPLLAAGAPRYQHVGQVLLFQAPEAGGRWNQTQKIEGTQIGSYFGGELCSVDLDQDGEAELLLIGAPLFFGEQRGGRVFTYQRRQSLFEMVSELQGDPGYPLGRFGAAITALTDINGDRLTDVAVGAPLEEQGAVYIFNGKPGGLSPQPSQRIQGAQVFPGIRWFGRSIHGVKDLGGDRLADVVVGAEGRVVVLSSRPVVDVVTELSFSPEEIPVHEVECSYSAREEQKHGVKLKACFRIKPLTPQFQGRLLANLSYTLQLDGHRMRSRGLFPDGSHELSGNTSITPDKSCLDFHFHFPICIQDLISPINVSLNFSLLEEEGTPRDQKVGRAMQPILRPSIHTVTKEIPFEKNCGEDKKCEANLTLSSPARSGPLRLMSSASLAVEWTLSNSGEDAYWVRLDLDFPRGLSFRKVEMLQPHSRMPVSCEELTEGSSLLTKTLKCNVSSPIFKAGQEVSLQVMFNTLLNSSWEDFVELNGTVHCENENSSLQEDNSAATHIPVLYPVNILTKEQENSTLYISFTPKGPKTQQVQHVYQVRIQPSAYDHNMPTLEALVGVPWPHSEDPITYTWSVQTDPLVTCHSEDLKRPSSEAEQPCLPGVQFRCPIVFRREILIQVTGTVELSKEIKASSTLSLCSSLSVSFNSSKHFHLYGSKASEAQVLVKVDLIHEKEMLHVYVLSGIGGLVLLFLIFLALYKVGFFKRNLKEKMEADGGVPNGSPPEDTDPLAVPGEETKDMGCLEPLRESDKD
  fold luminescence over the NanoBiT negative controls: 1000 fold
